{
  "source": "patent US20230391854A1",
  "about": "(Innovent, published 2023)",
  "binders": {"B1": {"name": "P10-20 (antibody, V domains shown)", "VH": "QVQLVESGGGLVKPGGSLRLSCAASGFTFSDYYMSWIRQAPGKGLEWVSYISISSTYTNYADSVKGRFTISRDNAKNSLYLQMNSLRAEDTAVYYCVIAAAGKGHYYYGMDVWGQGTTVTVSS", "VL": "not shown", "notes": "also called candidate antibody molecule P10-20"}, "B2": {"name": "P23-29 (antibody, V domains shown)", "VH": "QVQLQESGPGLVKPSETLSLTCTVSGDSISSSTYYWGWIRQPPGKGLEWIGSMYYGRSTYYNPSLKSRVTVSVDTSKNQLSLKVSSVTAADTAVYYCARHLGGVDYWGQGTLVTVSS", "VL": "DIQMTQSPSSLSASVGDRVTITCRASQGISNSLAWYQQEPGKAPKLLLYAASTLESGVPSRFSGSGSGADSTLTISSLQPEDFATYYCQQYYSASALTFGGGTKVEIK", "notes": "also called candidate antibody molecule P23-29"}, "B3": {"name": "P14-44 (antibody, V domains shown)", "VH": "QVQLVQSGAEVKKPGASVKVSCKASGYIFTSYSMHWVRQAPGQGLEWMGTIKPSDDSTNYAQKFQGRVSMTRDTSTSTVYMELSSLRYEDTAVYYCAREARGYYDRSGYYHPGYFDYWGQGTLVTVSS", "VL": "QSVLTQPASVSGSPGQSITISCTGTSSDVGGYNFVSWYQQHPGKAPKLMIYEVSDRPSGVSSRFSGSKSGNTASLTISGLQAEDEADYYCFSYTTSTTWVFGGGTKLTVL", "notes": "also called candidate antibody molecule P14-44"}, "B4": {"name": "P5-22 (antibody, V domains shown)", "VH": "EVQLVESGGGLVKPGGSLRLSCAASGFTFRDYDIIWIRQAPGKGLEWVSYISRSGSTIYYSDSVRGRFTISRDNAKNSVYLQMNSLRAEDTAVYYCARDFGFEGPRMDVWGQGTTVTVSS", "VL": "DIQMTQSPSSLSASVGDRVTITCQASQDIKNYLNWYQQKPGKAPKLLIYDASNLETGVPSRFSGSGSGTDFTFTISSLQPEDIATYYCQQFDNLPITFGQGTRLEIK", "notes": "also called candidate antibody molecule P5-22"}, "B5": {"name": "P3-11 (antibody, V domains shown)", "VH": "QVQLVESGGGLVQPGGSLRLSCAASGITVSSNYMSWVRQAPGKGLEWVSVIYSGGSTFYADPVKGRLTISRDNSKNTLYLQMNSVRVEDTAVYYCARGEGWELPFDYWGQGALVTVSS", "VL": "QSALTQPPSASGSPGQSVTISCTGTSSDVGGNKYVSWYQQHPGKAPKLIIYEVSKRPSGVPDRFSGSKSGNTASLTVSGLQAEDEADYHCSSYAGSNNLVFGGGTKLTVL", "notes": "also called candidate antibody molecule P3-11"}, "B6": {"name": "P14-37 (antibody, V domains shown)", "VH": "EVQLVESGGGLVKPGGSLRLSCAASGFTFSNAWMSWVRQAPGKGLEWVGRIKRNSDGGTTDHAAPVTGRFIISRDDSKNTLYLQMNSLRTEDTAVYYCTTDLDTVVRRVVITDHDAFDIWGQGTMVTVSS", "VL": "DIQMTQSPSSLSASVGDRVTITCRASQSISSFLNWYQQKAGKAPKLLIYAASSLQSGVPSRFSGSGSGTDFSLTISNLQPEDFATYYCQQSYSTPSITFGQGTRLEIK", "notes": "also called candidate antibody molecule P14-37"}, "B7": {"name": "P15-16 (antibody, V domains shown)", "VH": "QVQLVESGGGLVQPGRSLTLSCAASGFTFDDYAMHWVRQAPGKGLEWVSGISWNSGTIDYADSVKGRFTISRDNAKNSLYLQMNSLRAEDTALYYCATLPRERAYSGYDRIFYTIDVWGQGTTVTVSS", "VL": "not shown", "notes": "also called candidate antibody molecule P15-16"}},
  "data": [
    {"biological_target": "SARS-CoV-2 euvirus S protein (SARS-CoV-2, UniProt P0DTC2 14-1273)", "assay": "cell-based or functional assay", "units": {"EC50, neutralization of SARS-CoV-2 euvirus infection of VERO-E6 cells (CPE, day 4)": "µg/mL"}, "values": [
      {"binder": "B1", "EC50, neutralization of SARS-CoV-2 euvirus infection of VERO-E6 cells (CPE, day 4)": "~0.0752"},
      {"binder": "B2", "EC50, neutralization of SARS-CoV-2 euvirus infection of VERO-E6 cells (CPE, day 4)": 0.0488},
      {"binder": "B3", "EC50, neutralization of SARS-CoV-2 euvirus infection of VERO-E6 cells (CPE, day 4)": 0.708},
      {"binder": "B4", "EC50, neutralization of SARS-CoV-2 euvirus infection of VERO-E6 cells (CPE, day 4)": 0.00657},
      {"binder": "B5", "EC50, neutralization of SARS-CoV-2 euvirus infection of VERO-E6 cells (CPE, day 4)": 0.195}
    ]},
    {"biological_target": "Biotin-ncov RBD (KACTUS, COV-VM4BDB) (SARS-CoV-2, UniProt P0DTC2 319-537)", "assay": "ELISA blocking assay: antibody titrated from 900 nM, blocks biotin-RBD (200 ng/mL) binding to coated ACE2-Fc", "units": {"IC50": "nM"}, "values": [
      {"binder": "B1", "IC50": 0.957},
      {"binder": "B6", "IC50": 1.14},
      {"binder": "B7", "IC50": 1.39},
      {"binder": "B2", "IC50": 1.2},
      {"binder": "B3", "IC50": 0.863},
      {"binder": "B4", "IC50": 1.08},
      {"binder": "B5", "IC50": 1.1}
    ]}
  ]
}
